This passage reports Kd results from patent US20210122818A1 (BIOUNIVERSA S R L, published 2021).

The target of the test is T1, recombinant BAG3 full-length protein (UniProt O95817 2-575, limits assumed).
T1 construct: mature; also called rBAG3; E. Coli rBAG3
The test can be described thus: method for the murine antibody not stated (Example 3, Octet). For orientation: BLI is a label-free optical method that tracks binding on a fibre tip over time.

T1 sequence (O95817 2-575 limits assumed): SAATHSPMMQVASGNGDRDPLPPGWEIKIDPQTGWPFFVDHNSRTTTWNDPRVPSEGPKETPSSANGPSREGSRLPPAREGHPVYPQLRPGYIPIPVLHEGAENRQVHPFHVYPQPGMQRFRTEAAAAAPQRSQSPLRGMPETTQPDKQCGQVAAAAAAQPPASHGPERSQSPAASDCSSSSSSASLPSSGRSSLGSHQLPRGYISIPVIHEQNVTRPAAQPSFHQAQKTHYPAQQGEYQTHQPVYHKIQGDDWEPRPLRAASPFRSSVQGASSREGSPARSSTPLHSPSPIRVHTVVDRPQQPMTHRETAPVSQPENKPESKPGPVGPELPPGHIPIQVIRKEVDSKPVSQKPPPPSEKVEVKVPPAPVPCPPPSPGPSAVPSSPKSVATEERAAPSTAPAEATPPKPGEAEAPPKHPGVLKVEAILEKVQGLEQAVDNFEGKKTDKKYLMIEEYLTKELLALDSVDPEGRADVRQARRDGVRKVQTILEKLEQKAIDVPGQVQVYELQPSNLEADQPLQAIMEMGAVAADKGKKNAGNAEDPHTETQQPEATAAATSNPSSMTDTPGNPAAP

B1: AC-2 murine antibody (antibody, V domains shown)
VH: EVQLQQSGAELVKPGASVKLSCTASGFNIKDTYMYWVKQRPEQGLEWIGGVDPANGNTRYDPKFQGKATLTADTSSSTAYLQLSSLTSEDTAVYYCGRDGAMDYWGQGTSVTVSS
VL: DIVMSQSPSSLAVSVGEKVTMSCKSSQSLLYSSNQKNYLAWHQQKPGQSPKLLIYWASTRESGVPDRFTGSGSGTDFTLTISSVKAEDLAIYYCQQYYTYPLTFGAGTKLELK
notes: Murine hybridoma antibody; also called anti-BAG3 mouse antibody (AC2); murine anti-BAG AC-2 antibody
As to B1, the Kd is 1 pM.

In general, Kd refers to the constant that tells how readily two partners part at equilibrium.
